In patent US20240383984A1 (Genentech, published 2024):
Positions count from the first letter of the chain named.

T1: Human E11-TM-ICD (E11 domain, transmembrane domain, and cytoplasmic domains of human FcRH5, on SVT2 cells) (human, UniProt Q96RD9 745-977)
T1 construct: On cells
T1 sequence: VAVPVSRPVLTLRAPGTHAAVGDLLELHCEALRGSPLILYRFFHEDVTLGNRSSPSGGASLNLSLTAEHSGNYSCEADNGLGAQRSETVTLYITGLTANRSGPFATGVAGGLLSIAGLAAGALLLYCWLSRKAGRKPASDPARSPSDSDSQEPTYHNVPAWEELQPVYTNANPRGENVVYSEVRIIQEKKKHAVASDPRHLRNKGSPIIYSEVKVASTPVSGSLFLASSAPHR

T2: human E11 protein (amino acids 745-850 of SEQ ID NO: 114, N-terminal His tag) (human, UniProt Q96RD9 745-850)
T2 construct: Membrane-proximal Ig domain of FcRH5, produced in CHO cells; also called human E11 domain; recombinant human E11
T2 sequence: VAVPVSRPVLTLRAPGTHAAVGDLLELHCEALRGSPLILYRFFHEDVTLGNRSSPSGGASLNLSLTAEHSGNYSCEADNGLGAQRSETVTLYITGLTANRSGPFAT

T3: cynomolgus E11 domain protein (cynomolgus monkey)
T3 construct: whole entry named; also called cyno E11
T3 chain: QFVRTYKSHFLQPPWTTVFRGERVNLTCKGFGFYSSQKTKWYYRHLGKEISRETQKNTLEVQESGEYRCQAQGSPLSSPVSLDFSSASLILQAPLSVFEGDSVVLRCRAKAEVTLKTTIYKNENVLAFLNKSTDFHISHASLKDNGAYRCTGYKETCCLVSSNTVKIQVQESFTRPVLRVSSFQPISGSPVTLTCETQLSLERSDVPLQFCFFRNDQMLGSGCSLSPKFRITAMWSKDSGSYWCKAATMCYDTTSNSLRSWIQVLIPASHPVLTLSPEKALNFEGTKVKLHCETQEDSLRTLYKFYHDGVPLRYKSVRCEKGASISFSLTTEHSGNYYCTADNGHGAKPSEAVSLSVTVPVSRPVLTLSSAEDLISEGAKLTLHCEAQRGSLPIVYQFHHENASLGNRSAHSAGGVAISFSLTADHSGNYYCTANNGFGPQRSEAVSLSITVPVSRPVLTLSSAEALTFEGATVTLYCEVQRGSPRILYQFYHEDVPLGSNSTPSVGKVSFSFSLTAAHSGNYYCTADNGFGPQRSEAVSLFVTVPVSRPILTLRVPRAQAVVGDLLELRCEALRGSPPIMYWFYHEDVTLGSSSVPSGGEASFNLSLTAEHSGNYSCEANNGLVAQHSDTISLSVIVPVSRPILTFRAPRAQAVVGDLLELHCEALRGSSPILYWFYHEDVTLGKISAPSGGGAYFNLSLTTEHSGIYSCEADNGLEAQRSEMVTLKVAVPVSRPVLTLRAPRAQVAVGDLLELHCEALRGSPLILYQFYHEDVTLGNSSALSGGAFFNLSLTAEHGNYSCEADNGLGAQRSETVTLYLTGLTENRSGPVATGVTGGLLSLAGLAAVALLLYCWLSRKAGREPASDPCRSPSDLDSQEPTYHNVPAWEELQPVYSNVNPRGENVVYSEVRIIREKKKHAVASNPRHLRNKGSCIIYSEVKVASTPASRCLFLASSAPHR

T4: human FcRH3 (BIACORE analyte) (human, UniProt Q96P31 18-573, limits assumed)
T4 construct: also called huFcRH3
T4 sequence (looked up): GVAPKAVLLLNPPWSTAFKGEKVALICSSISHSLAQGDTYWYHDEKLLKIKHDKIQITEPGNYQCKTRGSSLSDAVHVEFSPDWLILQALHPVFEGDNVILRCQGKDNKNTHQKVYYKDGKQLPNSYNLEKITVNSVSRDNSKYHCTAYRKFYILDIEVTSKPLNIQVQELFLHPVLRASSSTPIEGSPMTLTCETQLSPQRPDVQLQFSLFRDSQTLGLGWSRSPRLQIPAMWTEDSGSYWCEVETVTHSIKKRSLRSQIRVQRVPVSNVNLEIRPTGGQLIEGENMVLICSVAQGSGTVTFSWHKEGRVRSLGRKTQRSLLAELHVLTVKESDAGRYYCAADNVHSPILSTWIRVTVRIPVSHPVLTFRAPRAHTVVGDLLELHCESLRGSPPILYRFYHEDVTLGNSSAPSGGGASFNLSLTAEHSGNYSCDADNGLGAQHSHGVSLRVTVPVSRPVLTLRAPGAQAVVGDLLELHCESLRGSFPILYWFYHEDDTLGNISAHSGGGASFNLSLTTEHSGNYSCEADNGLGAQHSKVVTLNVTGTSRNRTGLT

B1: 17B1 (antibody, mouse IgG2a, V domains shown)
VH: QVQLQQSGPELVRPGVSVKISCKGSGYTFTHYAMHWVKQSHTKSLEWIGMISSSSGNTNFNQKFMDKATMTVDKSSTTAYLELARLTFGDSAIYYCARWSYYALFDYWGQGTTVTVSS
VL: ENVLTQSPAIMSASPGEKVTMTCSADSSVDYIHWYQQKSNTSPKLWIYDTSKLASGVPGRFSGSGSGNSYSLTISSMEAEDFATYYCFQGSGYPLTFGSGTKLELK
notes: mouse mAb, Campaign C; recombinant murine IgG2a for SPR
B2: hu1G7.v1.4/38E4.v1 TDB (bispecific antibody, V domains shown)
VH 1: EVQLVESGPGLVKPSETLSLTCTVSGFSLTRFGVHWVRQPPGKGLEWLGVIWRGGSTDYNAAFMSRLTISKDNSKNQVSLKLSSVTAADTAVYYCSNHYYGSSDYALDNWGQGTLVTVSS
VL 1: DIQMTQSPSSLSASVGDRVTITCKASQDVRNLVVWFQQKPGKAPKLLIYSGSYRYSGVPSRFSGSGSGTDFTLTISSLQPEDFATYYCQQHYSPPYTFGQGTKVEIK
VH 2: EVQLVQSGAEVKKPGASVKVSCKASGFTFTSYYIHWVRQAPGQGLEWIGWIYPENDNTKYNEKFKDRVTITADTSTSTAYLELSSLRSEDTAVYYCARDGYSRYYFDYWGQGTLVTVSS
VL 2: DIVMTQSPDSLAVSLGERATINCKSSQSLLNSRTRKNYLAWYQQKPGQSPKLLIYWTSTRKSGVPDRFSGSGSGTDFTLTISSLQAEDVAVYYCKQSFILRTFGQGTKVEIK
notes: knob-into-hole TDB; also called 1G7.v1.4 TDB; 1G7.v1.4 (TDB format)
B3: 1G7.v85/38E4.v1 TDB (bispecific antibody, V domains shown)
VH 1: B2 VH 1 with M64V
VL 1: B2 VL 1
VH 2: B2 VH 2
VL 2: B2 VL 2
notes: knob-into-hole TDB; also called 1G7.v85 TDB; 1G7.v85 (TDB format)
B4: 15G8 (antibody, mouse IgG2a, V domains shown)
VH: EVQLQQSGPELVKPGASVKMSCKASGYTFTNYVIHWMKQKPGQGLEWIGYISPYNDYTKYNEKFEGKATLTSDKSSNTAYMELSSLTSEDSAVYYCARRDYYGSSDYWGQGTTLTVSS
VL: QIVLTQSPAIMSASPGEKVTMTCSASSSVDYMHWYQQKSGTSPKKWIYDTSKLASGVPARFSGSGSGTSYSLTIGSMEAEDAATYYCQQWSSNPPTFGGGTKLEIK
notes: mouse mAb, Campaign C; recombinant murine IgG2a for SPR; also called mAb 15G8

Experiments:
[1] = molecular target: T1, Human E11-TM-ICD (E11 domain, …); test: FACS, SVT2 cells
[2] = molecular target: T2, human E11 protein (amino acids 745-850 …); test: SPR, IgG captured on protein A, monovalent
Procedure: (§1) *E11 domain, transmembrane domain, and cytoplasmic domains of human FcRHS. §Surface plasmon resonance BIACORE * KD, monovalent affinity. Human E11 domain experiments were performed 1 to 3 times and averaged.
(§2) Briefly, test antibodies were captured on flow cells 2, 3 or 4 with flow cell 1 as a reference on a protein A Series S CM5 chip (GE Life Sciences, Piscataway, NJ). An FcRH5 protein fragment was used as analyte, with a flow rate of 30 μl/minute. Between injections the capture surface was regenerated by a 30 second injection of 10 mM glycine, pH 1.5 at a flow rate of 10 μl/minute. Interactions were assessed at 25° C. in 10 mM HEPES pH 7.4, 150 mM NaCl, 0.05% Tween 20 (HBSP). Reference data from the reference flow cell and from injection of buffer alone was subtracted prior to kinetic analysis. Kinetic information was calculated by fitting data to a 1:1 binding model. Reference subtraction and data fitting were performed using BIAevaluation software (GE Life Sciences, Piscataway, NJ).

[3] = molecular target: T3, cynomolgus E11 domain protein; test: SPR, IgG captured on protein A, monovalent
Procedure: as §1, §2

[4] = molecular target: T4, human FcRH3 (BIACORE analyte); test: BIACORE

binding result [1] | Kd [2] [nM] | Kd [3] [nM] | Kd [4] [nM] | Binder
binds | 68 | 27 | – | B1
– | – | – | ~80 | B2
– | – | – | ~90 | B3
binds | 0.5 | 9.1 | – | B4
